Results: patent US20220056119A1
Blank lines part the entries; values can stand above or below the binder they belong to.

Target: activin Type II receptors (ActRIIA and ActRIIB) on A204/CAGAx12-Luc cells
Assay: cell-based or functional assay

- activation of the A204/CAGAx12-Luc cell line (Smad 2/3-luciferase reporter), EC50: 0.047 nM
B1: Activin B (homodimer of two inhibin betaB subunits), P09529 293-407 (ligand)
chain: GLECDGRTNLCCRQQFFIDFRLIGWNDWIIAPTSYYGNYCEGSCPAYLAGVPGSASSFHTAVVNQYRMRGLNPGTVNSCCIPTKLSTMSMLYFDDEYNIVKRDVPNMIVEECGCA

- activation of the A204/CAGAx12-Luc cell line (Smad 2/3-luciferase reporter), EC50: 0.099 nM
B2: Activin A (homodimer of two inhibin betaA subunits), P08476 311-426 (ligand)
chain: GLECDGKVNICCKKQFFVSFKDIGWNDWIIAPSGYHANYCEGECPSHIAGTSGSSLSFHSTVINHYRMRGHSPFANLKSCCVPTKLRPMSMLYYDDGQNIIKKDIQNMIVEECGCS
